The supplement of paper PMC9732359
± gives the uncertainty stated by the source.

Assay: protein stability index of a GFP-peptide fusion (yeast GPS) (PSI 1-4); higher = more stable; sorted into four equal gates, so the index is relative within each strain
Method in brief: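 Tiled 17-residue yeast protein peptides were fused downstream of GFP in a plasmid that also expresses Cherry, and the pooled library was carried in yeast. Mid-log cultures in leucine-free medium were sorted into four equal gates by GFP/Cherry fluorescence ratio, and plasmids from each gate were PCR-amplified and Illumina-sequenced, with reads assigned to strains by barcodes. The protein stability index for each peptide was each gate's read frequency times its gate number, summed.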

| Sequence | protein stability index (doa10∆) | protein stability index (ubr1∆) | protein stability index (pdr5∆) | protein stability index (san1∆) |
| --- | --- | --- | --- | --- |
| TYASVTGLFTLERTDLK [RPN7] | 3.43 ± 0.23 | 2.62 ± 0.21 |  |  |
| TYDKETITDLIEQGIPK [SIR4] | 3.3 ± 0.049 | 3.41 ± 0.043 | 3.39 ± 0.051 | 3.35 ± 0.04 |
| TYLTQEILILINDPTNK [SIN4] | 1.31 ± 0.06 | 1.26 ± 0.05 | 1.55 ± 0.051 | 1.36 ± 0.091 |
| TYQTERFTKFSDTLKEF [YDL116W/NUP84] | 2.38 ± 0.047 | 1.97 ± 0.046 | 2.31 ± 0.056 | 1.73 ± 0.12 |
| VAADGKLVTYIVKFKQK [YLR335W/NUP2] | 2.17 ± 0.059 | 2.02 ± 0.05 | 2.11 ± 0.054 | 2.09 ± 0.064 |
| VAAKWNTSLISLFTYFR [PRP8] | 1.7 ± 0.064 | 2 ± 0.039 | 1.97 ± 0.095 | 1.74 ± 0.18 |
| VAARMFHILLKLILEWV [ECM29] | 1.42 ± 0.17 | 2.1 ± 0.094 | 1.64 ± 0.12 | 1.91 ± 0.12 |
| VAATNTPIIFIGTGEHI [SRP54] | 2.17 ± 0.1 | 2.6 ± 0.071 | 3.03 ± 0.12 | 2.26 ± 0.083 |
| VAEGKSKQDASPKPYAV [RPL8A] | 3.04 ± 0.12 | 3.02 ± 0.058 | 3.29 ± 0.059 | 3.04 ± 0.07 |
| VAEIVQNVISLGSLTVE [RPC82] | 1.97 ± 0.068 | 1.68 ± 0.11 | 2.23 ± 0.098 | 1.97 ± 0.14 |
| VAFVCSPISDSRDELIR [RPN10] | 2.42 ± 0.093 | 2.34 ± 0.099 | 2.56 ± 0.11 | 1.67 ± 0.12 |
| VAGAGAASGAAAAGGDA [RPP1B] | 3.09 ± 0.18 | 2.62 ± 0.078 | 2.79 ± 0.092 | 3.22 ± 0.22 |
| VAGGVAGGEAGEAEAEK [RPP1A] |  | 3.45 ± 0.13 | 3.26 ± 0.17 |  |
| VAIQQGDIKPEFSPRLH [YML103C/NUP188] | 2.45 ± 0.11 | 2.83 ± 0.068 | 2.84 ± 0.096 | 3.07 ± 0.099 |
| VAKTAPNSNKTHTEQNN [SNF2] | 2.82 ± 0.04 | 3.06 ± 0.037 | 3.07 ± 0.052 | 3.01 ± 0.033 |
| VAKVDEEGRAIPGEYIT [RPS21B] | 2.5 ± 0.095 | 2.77 ± 0.065 | 2.52 ± 0.12 | 2.44 ± 0.1 |
| VANSPNKRLDVIDGKLP [YDL088C/ASM4] | 3.03 ± 0.068 | 2.11 ± 0.058 | 2.8 ± 0.067 | 2.42 ± 0.094 |
| VAQLKPFFKYIDDANVT [RPC37] | 2.81 ± 0.078 | 2.8 ± 0.07 | 2.9 ± 0.07 | 2.9 ± 0.062 |
| VARTFWASKYGQEYPRI [BRR2] | 2.42 ± 0.15 | 3.06 ± 0.094 | 2.38 ± 0.17 | 2.32 ± 0.17 |
| VATNIVNEDPIFHPMIH [YML103C/NUP188] | 2.53 ± 0.046 | 2.58 ± 0.038 | 2.63 ± 0.045 | 2.44 ± 0.045 |
| VCGIIVKQEDMPFNDQG [RET1] | 3.06 ± 0.16 | 2.49 ± 0.21 | 2.87 ± 0.24 | 2.46 ± 0.26 |
| VDAYRRLENKLSEIESL [SRP68] | 1.4 ± 0.078 | 1.68 ± 0.062 | 1.48 ± 0.073 | 1.57 ± 0.11 |
| VDDLRPEFAGYSKAAEP [ASC1] | 3.18 ± 0.23 | 3.67 ± 0.16 |  |  |
| VDDSMELCGQIRSERFK [ITC1] | 2.84 ± 0.072 | 2.94 ± 0.13 | 3 ± 0.067 | 3.28 ± 0.086 |
| VDEPMTSAVELGAIEQI [YJL039C/NUP192] | 3.41 ± 0.3 | 2.87 ± 0.28 | 3.66 ± 0.17 | 3 ± 0.16 |
| VDINRLKKGEVSLGTSI [PRE3] | 2.21 ± 0.098 | 1.33 ± 0.06 | 1.55 ± 0.063 | 2.11 ± 0.081 |
